{
  "source": "paper PMC6588637",
  "about": "“Immunization with merozoite surface protein 2 fused to a Plasmodium-specific carrier protein elicits strain-specific and strain-transcending, opsonizing antibody” (Scientific Reports, 2019)",
  "proteins": {"B1": {"name": "unfused recombinant Plasmodium falciparum merozoite surface protein 2 (3D7 allele) (domain or fragment)", "chain": "KNESKYSNTFINNAYNMSIRRSMAESKPSTGAGGSAGGSAGGSAGGSAGGSAGGSAGSGDGNGADAEGSSSTPATTTTTKTTTTTTTTNDAEASTSTSSENPNHKNAETNPKGKGEVQEPNQANKETQNNSNVQQDSQTKSNVPPTQDADTKSPTAQPEQAENSAPTAEQTESPELQSAPENKGTGQHGHMHGSRNNHPQNTSDSQKECTDGNKENCGAATSLLNNSS", "notes": "Predicted molecular weight 24,721 daltons; also called rPfMSP2; rPfMSP2 (3D7); not shown: His6, N-terminal, kept"}},
  "molecular_target": "the molecule itself",
  "assay": "Thioflavin T fluorescence assay of amyloid-like fibril formation; 10 μM recombinant protein in PBS without sarkosyl, 30 μM ThT, 37 °C for up to 98 hours; in parallel with 40 μM EGCG, an inhibitor of fibril formation",
  "data": [
    {"protein": "B1", "values": [
      {"measurement": "binding result", "value": "binds"}
    ]}
  ]
}
